Source: PMC12137140, “The fast-evolving FIKK kinase family of Plasmodium falciparum can be inhibited by a single compound” (Nature Microbiology, 2025)

Tests used:
Bio-His-FIKK13 [1] = target: T1, Bio-His-FIKK13 (P. falciparum, biotin (site not stated)); assay: SPR; Bio-His-FIKK13 immobilised (Biotin CAPture kit, about 1,400 RU), Biacore S200, single-cycle kinetics, 100 s contact time, 25 °C, 50 mM Tris pH 7.5, 250 mM NaCl, 2 mM DTT, 10 mM MgCl2, 1.5 µM ADP, 0.02% Tween, 0.1% DMSO; settings: both partners purified
T1 construct: also called His-bio-FIKK13; biotinylated FIKK13

Bio-His-FIKK13 [2] = target: T2, Bio-His-FIKK13 (Plasmodium falciparum 3D7, biotin (site not stated)); assay: SPR; single-cycle kinetics, Biacore S200, Biotin CAPture kit; Bio-His-FIKK13 immobilised (about 1,400 RU), peptides as analytes; 50 mM Tris pH 7.5, 250 mM NaCl, 2 mM DTT, 10 mM MgCl2, 1.5 µM ADP, 0.02% Tween, 0.1% DMSO; 25 °C; 100 s contact time; settings: both partners purified
T2 construct: also called His-bio-FIKK13; PfFIKK13

Binder	Kd (Bio-His-FIKK13 [1]) [nM]	Kd (Bio-His-FIKK13 [2]) [µM]
YPLRFLSKYHCG (D-tyrosine at the N-terminus; cyclised via a thioether bond between the N-terminus and the cysteine side chain; C-terminal amide) [FIKK13_4]	17	
YPLRFLAVKAHCG (D-tyrosine at position 1; cyclised via a thioether bond between the N-terminus and the cysteine side chain; C-terminal amide) [FIKK13_4_S7AY10A]		> 10
